According to patent US20180355059A1 (PHARMAEXPLORER, published 2018):
Residue numbers refer to the chain shown, from its start.

B1: 103C11E8, chimeric anti-PCSK9 mAb purified from hybridoma (antibody, V domains shown)
VH: QVQLQESGPGLVKPSGTLSLTCAVSGGSISSSNWWSWVRQPPGKGLEWIGEIYHSGSTNYNPSLKSRVTISVDKSKNQFSLKLSSVTAADTAVYYCARGIAVAGTDVMDAWGQGASVTVSS
VL: EIVLTQSPATLSLSPGERATLSCRASQSVSSYLVWYQQKSGQAPRLLIYGTSNRATGIPARFSGSGSGTDFTLTISSLEPEDFALYYCQQRGNWMYTFGQGTKLEIK
notes: From Harbour H2L2 mice: human variable regions, rat constant regions
B2: AF-mab023_01 (antibody, V domains shown)
VH: EVQLVESGGGLVQPGGSLRLSCAASGITFSSYWMSWVRQAPGKGLEWVANIKQDGSEKYYVDSVKGRFTISRDIAKNSLYLQMNSLRAEDTAVYYCARDRGTYYYGIGSYNYYYYGMDVWGQGTTVTVSS
VL: not shown
B3: AF-mab023_11 (antibody, V domains shown)
VH: B2 VH with G106Q, I107E
VL: not shown
B4: AF-mab023_08 (antibody, V domains shown)
VH: B2 VH with Y105I, G106A, I107D
VL: not shown
B5: AF-mab023_10 (antibody, V domains shown)
VH: B2 VH with G106D, I107S, S109R
VL: not shown
B6: AF-mab023_04 (antibody, V domains shown)
VH: B2 VH with G106D, I107S, S109G
VL: not shown
B7: AF-mab023_06 (antibody, V domains shown)
VH: B2 VH with Y105F, G106Q, I107S
VL: not shown
B8: AF-mab023_02 (antibody, V domains shown)
VH: B2 VH with G106W, I107L, S109T
VL: not shown
B9: AF-mab023_12 (antibody, V domains shown)
VH: B2 VH with G106T, I107E, S109G
VL: not shown
B10: AF-mab023_15 (antibody, V domains shown)
VH: B2 VH with G106Q, I107D, S109N
VL: not shown
B11: AF-mab023_18 (antibody, V domains shown)
VH: B2 VH with G106A, I107D, S109D
VL: not shown
B12: AF-mab023_07 (antibody, V domains shown)
VH: B2 VH with G106Q, I107Q
VL: not shown
B13: AF-mab023_16 (antibody, V domains shown)
VH: B2 VH with G106Q, I107D, S109K
VL: not shown
B14: AF-mab023_05 (antibody, V domains shown)
VH: B2 VH with Y105H, G106W, I107L
VL: not shown
B15: AF-mab023_19 (antibody, V domains shown)
VH: B2 VH with G106A, I107S, S109K
VL: not shown
B16: AF-mab023_03 (antibody, V domains shown)
VH: B2 VH with G106A, I107S
VL: not shown
B17: AF-mab023_17 (antibody, V domains shown)
VH: B2 VH with Y105T, I107M, S109E
VL: not shown
B18: AF-mab023_14 (antibody, V domains shown)
VH: B2 VH with G106A, I107D, S109G
VL: not shown
B19: AF-mab023_13 (antibody, V domains shown)
VH: B2 VH with G106T, I107E
VL: not shown

biological target: T1, recombinant human PCSK9 protein, His-tagged (Immunogen A, hPCSK9-His) (human, UniProt Q8NBP7 31-692, limits assumed, biotin-labelled in the ELISA and blocking assays (Biotin labeling kit)); assay: ELISA, biotin-hPCSK9-His on streptavidin plate; antibody 66.67 nM
T1 construct: also called human PCSK9-His; recombinant hPCSK9-His; not shown: His tag

Row | OD450 nm [OD450 nm] | Binder
1 | 2.72 | B1

biological target: T1, recombinant human PCSK9 protein, …; assay: ELISA, biotin-hPCSK9-His on streptavidin plate; antibody 6.67 nM
Procedure: (§1) The next day, the plates were washed twice with wash buffer [0.01% (v/v) Tween 20], then blocked with blocking buffer [0.01% (v/v) 0.1% BSA (w/w) Tween 20] at room temperature for 2 hours. […] Unbound PCSK9 proteins were removed by washing the plate three times with wash buffer [0.01% (v/v) Tween 20]. […] The plates were washed twice with wash buffer [0.01% (v/v) Tween 20], and 200 uL HRP-conjugated secondary antibody (Sigma) was added to each well and incubated for 2 hours at 37° C. After the plates were washed three times with wash buffer, 100 ul TMB substrate were added to each well and incubated for 30 minutes at room temperature. 100 ul stop solution (0.1N HCl) were added to each well to stop the reaction.

Row | OD450 nm [OD450 nm] | Binder
2 | 2.71 | B1

biological target: T1, recombinant human PCSK9 protein, …; assay: blocking ELISA, biotin-hPCSK9-His on coated LDLR ECD-His; antibody 8 nM
Procedure: (§2) Purified LDLR^ECD-His was diluted with PBS to a final concentration of 1.0 ug/ml, and 100 uL of diluted LDLR^ECD-His were added to each well of 96-well plate that was then sealed with plastic film and incubated at 4° C. overnight. The plate was washed twice with wash buffer [PBS+0.01% (v/v) Tween 20] and incubated with blocking buffer [PBS+0.01% (v/v) BSA+1% Tween20 (w/w)] at room temperature for 2 hours. […] The plate was washed three times with wash buffer [0.01% (v/v) Tween 20]. 100 uL HRP-conjugated streptavidin (Sigma) were then added to each well and incubated at 37° C. for 1 hour. The plate was then washed three times with wash buffer, and 100 uL TMB substrate were added to each well. After 15 minutes of incubation at room temperature, the reaction was stopped by adding 50 uL stop solution (0.1N HCl).

Row | OD450 nm (PCSK9 bound to LDLR) [OD450 nm] | Binder
3 | 0.87 | B1

biological target: T1, recombinant human PCSK9 protein, …; assay: blocking ELISA, biotin-hPCSK9-His on coated LDLR ECD-His; antibody 200 nM
Procedure: as §2

Row | OD450 nm (PCSK9 bound to LDLR) [OD450 nm] | Binder
4 | 0.54 | B1

biological target: T1, recombinant human PCSK9 protein, …; assay: ELISA, biotin-hPCSK9-His on streptavidin plate; antibody 0.00067 nM
Procedure: as §1

Row | OD450 nm [OD450 nm] | Binder
5 | 0.15 | B1

biological target: T2, recombinant human PCSK9-His protein (Immunogen A) (human, UniProt Q8NBP7 31-692, limits assumed, biotinylated in the ELISA assays); assay: SPR, Biacore;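 further: antibodies captured via immobilized anti-human Fc IgG on a CM5 chip, PCSK9 as analyte in HBS-EP+ buffer, 400 s dissociation, reference flow cell subtracted, 1:1 binding model fit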
T2 construct: also called hPCSK9-His; His-tagged hPCSK9; not shown: His tag

Row | Kd [nM] | koff [s⁻¹] | kon [M⁻¹ s⁻¹] | Binder
6 | 0.36 | 0.000115 | 320000 | B2
7 | 0.26 | 0.000144 | 553000 | B3
8 | 0.443 | 0.000158 | 357000 | B4
9 | 1.05 | 0.000328 | 313000 | B5
10 | 0.409 | 0.000239 | 584000 | B6
11 | 0.225 | 6.59e-05 | 293000 | B7
12 | 0.268 | 8.2e-05 | 306000 | B8
13 | 0.176 | 8.47e-05 | 480000 | B9
14 | 0.381 | 0.000182 | 477000 | B10
15 | 0.292 | 0.000161 | 551000 | B11
16 | 0.653 | 0.000214 | 327000 | B12
17 | 0.447 | 0.000143 | 319000 | B13
18 | 0.207 | 6.31e-05 | 305000 | B14
19 | 1.55 | 0.000351 | 226000 | B15
20 | 1.24 | 0.00046 | 370000 | B16
21 | 0.31 | 0.000109 | 351000 | B17
22 | 0.306 | 0.000164 | 534000 | B18
23 | 0.392 | 0.000178 | 455000 | B19

biological target: T1, recombinant human PCSK9 protein, …; assay: ELISA, biotin-hPCSK9-His on streptavidin plate; antibody 0.67 nM
Procedure: as §1

Row | OD450 nm [OD450 nm] | Binder
24 | 2.41 | B1

biological target: T1, recombinant human PCSK9 protein, …; assay: ELISA, biotin-hPCSK9-His on streptavidin plate; antibody 0 nM (blank)
Procedure: as §1

Row | OD450 nm [OD450 nm] | Binder
25 | 0.14 | B1

biological target: T1, recombinant human PCSK9 protein, …; assay: ELISA, biotin-hPCSK9-His on streptavidin plate; antibody 0.067 nM
Procedure: as §1

Row | OD450 nm [OD450 nm] | Binder
26 | 0.68 | B1

biological target: T1, recombinant human PCSK9 protein, …; assay: blocking ELISA, biotin-hPCSK9-His on coated LDLR ECD-His; antibody 0.01 nM
Procedure: as §2

Row | OD450 nm (PCSK9 bound to LDLR) [OD450 nm] | Binder
27 | 0.97 | B1

biological target: T1, recombinant human PCSK9 protein, …; assay: blocking ELISA, biotin-hPCSK9-His on coated LDLR ECD-His; antibody 0.06 nM
Procedure: as §2

Row | OD450 nm (PCSK9 bound to LDLR) [OD450 nm] | Binder
28 | 0.96 | B1

biological target: T1, recombinant human PCSK9 protein, …; assay: blocking ELISA, biotin-hPCSK9-His on coated LDLR ECD-His; antibody 40 nM
Procedure: as §2

Row | OD450 nm (PCSK9 bound to LDLR) [OD450 nm] | Binder
29 | 0.77 | B1

biological target: T1, recombinant human PCSK9 protein, …; assay: ELISA, biotin-hPCSK9-His on streptavidin plate; antibody 0.0067 nM
Procedure: as §1

Row | OD450 nm [OD450 nm] | Binder
30 | 0.21 | B1

biological target: T1, recombinant human PCSK9 protein, …; assay: blocking ELISA, biotin-hPCSK9-His on coated LDLR ECD-His; antibody 0.32 nM
Procedure: as §2

Row | OD450 nm (PCSK9 bound to LDLR) [OD450 nm] | Binder
31 | 0.92 | B1

biological target: T1, recombinant human PCSK9 protein, …; assay: ELISA, biotin-hPCSK9-His on streptavidin plate; antibody 0.000067 nM
Procedure: as §1

Row | OD450 nm [OD450 nm] | Binder
32 | 0.11 | B1
